Measured values as given in US20220218614A1, “IONIZABLE CATIONIC LIPIDS AND LIPID NANOPARTICLES, AND METHODS OF SYNTHESIS AND USE THEREOF” (Tidal Therapeutics, Inc., priority 2020, published 2022).
“Also recorded” adds a separate entry of the source.

B1: BDSn: anti-CD8 Nanobody, SEQ ID NO: 77 (protein)
VHH: EVQLVESGGGLVQAGGSLRLSCAASGSTFSDYGVGWFRQAPGKGREFVADIDWNGEHTSYADSVKGRFATSRDNAKNTAYLQMNSLKPEDTAVYYCAADALPYTVRKYNYWGQGTQVTVSSGGCGGHHHHHH
modifications: conjugate
B2: OKT8: anti-CD8 Fab, SEQ ID NO: 8 and 9 (antibody)
heavy: QVQLVQSGAEDKKPGASVKVSCKASGFNIKDTYIHWVRQAPGQGLEWMGRIDPANDNTLYASKFQGRVTITADTSSNTAYMELSSLRSEDTAVYYCGRGYGYYVFDHWGQGTTVTVSSASTKGPSVFPLAPSSKSTSGGTAALGCLVKDYFPEPVTVSWNSGALTSGVHTFPAVLQSSGLYSLSSVVTVPSSSLGTQTYICNVNHKPSNTKVDKKVEPKSSDKTHTC
light: DIVMTQSPSSLSASVGDRVTITCRTSRSISQYLAWYQEKPGKAPKLLIYSGSTLQSGVPSRFSGSGSGTDFTLTISSLQPEDFATYYCQQHNENPLTFGQGTKVEIKRTVAAPSVFIFPPSDEQLKSGTASVVCLLNNFYPREAKVQWKVDNALQSGNSQESVTEQDSKDSTYSLSSTLTLSKADYEKHKVYACEVTHQGLSSPVTKSFNRGES
B3: Teplizumab: anti-CD3 Teplizumab bDS Fab, SEQ ID NO: 54 and 55 (antibody)
heavy: QVQLVQSGGGVVQPGRSLRLSCKASGYTFTRYTMHWVRQAPGKGLEWIGYINPSRGYTNYNQKVKDRFTISRDNSKNTAFLQMDSLRPEDTGVYFCARYYDDHYCLDYWGQGTPVTVSSASTKGPSVFPLAPSSKSTSGGTAALGCLVKDYFPEPVTVSWNSGALTSGVHTCPAVLQSSGLYSLSSVVTVPSSSLGTQTYICNVNHKPSNTKVDKKVEPKSSDKTHTCHHHHHH
light: DIQMTQSPSSLSASVGDRVTITCSASSSVSYMNWYQQTPGKAPKRWIYDTSKLASGVPSRFSGSGSGTDYTFTISSLQPEDIATYYCQQWSSNPFTFGQGTKLQITRTVAAPSVFIFPPSDEQLKSGTASVVCLLNNFYPREAKVQWKVDNALQSGNSQESVTEQDSKDSTYSLCSTLTLSKADYEKHKVYACEVTHQGLSSPVTKSFNRGES

Experiments:
Format in all cases: cell-based
human CD3 T cells = test: Transfection of human CD3 T cells (CD8 and CD4 subsets) with Fab/Nb-targeted LNPs; conditions: targeted Lipid 8 LNP (Lipid 5 in Example 43), GFP mRNA approximately 2.5 μg/mL, approximately 24 hr
Method: LNPs were prepared using the mixing process described in Example 6, the buffer exchange process described below in Example 21. Using methods similar to Example 12, hSP34 and TRX2 Fab-lipid conjugates and a non-T cell specific anti-HER2 lipid-conjugate (Nellis D F, Ekstrom D L, Kirpotin D B, Zhu J, Andersson R, Broadt T L, Ouellette T F, Perkins S C, Roach J M, Drummond D C, Hong K, Marks J D, Park J W and Giardina S L (2005) Preclinical manufacture of an anti-HER2 scFv-PEG-DSPE, liposome-inserting conjugate. 1. Gram-scale production and purification. Biotechnol Prog 21:205-220) were post-inserted at various densities (SP34 0.25-17 g/mol; TRX2 0.25-9 g/mol; SP34+TRX2 0.25-9 g/mol each conjugate; anti-HER2 17 g/mol) into LNPs containing Lipid 8 and anti-CD20 targeting CART mRNA. Transfections were performed with human CD3 T cells at approximately 2.5 μg/mL mRNA for approximately 24 hr. For FACS analysis T cells were stained with M1 antibody (Sigma, F3040) that bind a N-terminus FLAG-tag variant sequence on the TTR-023 CAR (sequence provided below) in addition to staining for CD69 (Biolegend, 310930) and CD4 (Biolegend, 344648) to differentiate CD8 from CD4 cells.
LNPs were prepared using the mixing process described in Example 6, the buffer exchange process described in Example 21. Using methods similar to Example 12, hSP34, TRX2, and Ibalizumab Fab-lipid conjugates and a non-T cell specific anti-HER2 lipid-conjugate were post-inserted at various densities (specified in FIGS. 20A and 20B into LNPs containing Lipid 8 and Cy5/GFP mRNA. Transfections were performed with human CD3 T cells at approximately 2.5 μg/mL mRNA for approximately 24 hr and stained for CD69 (Biolegend, 310930) and CD4 (Biolegend, 344648) to differentiate CD8 from CD4 cells by FACS analysis.
LNPs were prepared using the mixing process described in Example 6, the buffer exchange process described in Example 21. Conjugates were generated using a method similar to that of Example 4 except 0.025, 0.1, 0.5 mM TCEP was used for hSP34 DS, 0.025, 0.2, 2 mM TCEP was used for hSP34-hlam NoDS (interchain disulfide knockout) for reduction prior to conjugation and the conjugation reactions were performed at 37 C for 2 hr. SDS-PAGE (FIGS. 65A, 65B) was performed using the manufacturers recommended conditions with 1 ug of protein (Thermo, 4-12% Bis-Tris MiniGel). RP-HPLC (FIGS. 65C, 65D) was performed using an Agilent 300 SB-C8 at 0.5 mL/min with a column temperature of 60° C., Mobile Phase A: Water with 0.1% TFA, Mobile Phase B: Acetonitrile with 0.1% TFA, Gradient % B: 0 min 5%, 1 min 5%, 6.5 min 95%, 8 min 95% injecting 10 ul with a target of 1-25 ug of protein. Using methods similar to Example 12, ant-CD3 hSP34 (with and without natural interchain disulfide, DS (with interchain disulfide) vs. NoDS (without interchain disulfide), see sequences below) PEG-lipid conjugated Fabs were post-inserted at various Fab densities (6, 12, 17 g Fab/mol total lipid) into LNPs containing Lipid 8 and Cy5/GFP mRNA. Transfections were performed with human CD3 T cells at approximately 2.5 μg/mL mRNA for approximately 24 hr. Levels of transfection of CD3 T cells was measured by flow cytometry.
LNPs were prepared using the mixing process described in Example 6, the buffer exchange process described in Example 21. Conjugates were generated using a method similar to that of Example 4 except 0.1 mM TCEP was used for reduction prior to conjugation and the conjugation reaction was performed at 37 C for 2 hr. […]

IFNγ = test: Human IFNγ ELISA of T cell culture supernatants after LNP transfection; conditions: T cells approximately 24 hr after targeted LNPs at approximately 2.5 μg/mL mRNA
Method: (§1) LNPs were prepared using the mixing process described in Example 6, the buffer exchange process described in Example 21. hSP34 and TRX2 Fab-lipid conjugates generated from methods described in Example 4 and a non-T cell specific anti-HER2 lipid-conjugate (Nellis D F, Ekstrom D L, Kirpotin D B, Zhu J, Andersson R, Broadt T L, Ouellette T F, Perkins S C, Roach J M, Drummond D C, Hong K, Marks J D, Park J W and Giardina S L (2005) Preclinical manufacture of an anti-HER2 scFv-PEG-DSPE, liposome-inserting conjugate. 1. Gram-scale production and purification. Biotechnol Prog 21:205-220) were post-inserted at various densities (SP34 0.6-17 g/mol; TRX2 3-9 g/mol; anti-HER2 17 g/mol) into LNPs containing Lipid 8, Cy5 labeled GFP mRNA and GFP mRNA (1:9 Cy5:GFP mass ratio) by adding conjugate and LNPs together and heating the solution without mixing in a thermal cycler at 60 C for 60 min and cooled to 4° C. for 3-5 min. […] After transfection, LNP binding efficiency (Cy5) and transfection efficiency (GFP) was evaluated by flow cytometry. Supernatants were measured for human IFNγ concentration using a commercially available ELISA kit under manufacturers recommended conditions (R&D Systems Duoset).
IFN-γ was assayed using an R&D Duoset […] ELISA kit, PN DY285B. […] Optical density at 450 nm was read on a Spectramax M5 plate reader. […]

human CD8 T cells = test: Transfection of human CD8 T cells with Fab-targeted Cy5/GFP mRNA LNPs; conditions: Lipid 8 LNP, Cy5/GFP mRNA approximately 2.5 μg/mL, approximately 24 hr, Fab conjugate post-inserted
Method: as §1, with “Duoset). […]” for “Duoset).”

Molecule	% GFP transfection and GFP expression (MFI) of CD8 and CD4 T cells, in words (human CD3 T cells)	IFNγ secretion into supernatant, in words (IFNγ)	transfection (% GFP+, GFP MFI) and binding (% Cy5+, Cy5 MFI), in words (human CD8 T cells)
B1	higher % transfection (FIG. 73A) and GFP expression levels (FIG. 73B) than anti-CD8 TRX2; also recorded: transfection and translation was only observed in the CD8 T cell population	did not mediate substantial IFNγ secretion levels over non-targeted mutOKT8 Fab	–
B2	–	–	high levels of particle binding
B3	lower levels of GFP expression	higher levels of IFNγ secretion than SP34	–
